# Data reported in article PMC9784018, “Rational Strategy for Designing Peptidomimetic Small Molecules Based on Cyclic Peptides Targeting Protein–Protein Interaction between CTLA-4 and B7-1” (Pharmaceuticals, 2022).
# Legend:
# [1] = target: CTLA-4 (coated for ELISA), P16410; test: ELISA; conditions: chain shown with the change; CTLA-4 coated at 5 μg/mL on the ELISA plate
# [2] = target: CTLA-4 of the CTLA-4:B7-1[Biotinylated] Inhibitor Screening Assay kit (UniProt P16410); test: ELISA; CTLA-4:B7-1[Biotinylated] Inhibitor Screening Assay kit (BPS Bioscience) with the MBP–peptide–His-tag fusion protein; data not shown
# [3] = target: CTLA-4 (coated for ELISA) (UniProt P16410); test: ELISA; CTLA-4 (5 μg/mL) coated on 384-well plate; purified MBP–peptide–His-tag fusion in 15-point two-fold dilution from 14 μM to 0.85 nM in PBS with 0.5% BSA, 1 h; detected with anti-FLAG M2 peroxidase antibody; EC50 = midpoint concentration
# CTLA-4 (coated for ELISA), P16410, sequence (P16410 36-161): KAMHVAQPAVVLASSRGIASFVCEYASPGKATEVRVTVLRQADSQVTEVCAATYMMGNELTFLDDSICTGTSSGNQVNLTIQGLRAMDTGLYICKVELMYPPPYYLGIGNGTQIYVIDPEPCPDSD
EC50 [1] [nM],IC50 [2] [nM],EC50 [3] [nM],Binder
81.8,–,–,CLHPFLPIVSHHFCGR [MBP–C4-302–His-tag fusion protein M1L; L6P; V7I; G(+2)R]
–,1360,74.7,CMHPFLPIVSHHFCER [MBP–C4m-3127 peptide–His-tag fusion protein]
